Bridges are numbered along the chain shown (N, C = ends). Where no end group is shown, it is not given here.
What was measured:
Assay type in all cases: in vivo
[1] = Acute toxicity in the mouse, Swiss Albino
Protocol: (§1) Animal: mouse (ICR, Swiss Albino and BDF1)
(§2) ICR (female, average body weight 25.0 g, age 5-6 weeks), Swiss Albino (female, average body weight 22.3 g, 5-6 weeks) and BDF1 (female, average body weight 21.5, 6 weeks) were divided into 6 groups consisting of 6 mice each, and predetermined amounts of SPH dissolved in 0.2 ml of physiological saline were administered intraperitoneally.

[2] = Acute toxicity in the mouse, ICR
Protocol: as §1, §2

[3] = Acute toxicity in the mouse, BDF1
Protocol: as §1, §2

[4] = Acute toxicity in the mouse, overall statement
Protocol: as §1, §2
Because the long term toxicity of SPH is low, the condition of the survival mice after recovery is similar to that of the control.

Sequence: KSCCRSTLGRNCYNLCRVRGAQKLCAGVCRCKLTSSGKCPTGFPK (disulfide 3-39, 4-31, 12-29, 16-25) [SPH]
- No. died (numerator) ([1]; 0.50 mg/Kg i.p.): 0/6
- No. died (numerator) ([1]; 1.00 mg/Kg i.p.): 1/6
- No. died (numerator) ([1]; 1.50 mg/Kg i.p.): 4/6
- No. died (numerator) ([1]; 2.00 mg/Kg i.p.): 6/6
- LD50 ([1]; i.p.): 1.33 mg/kg
- No. died (numerator) ([2]; 0.68 mg/Kg i.p.): 0/6
- No. died (numerator) ([2]; 1.36 mg/Kg i.p.): 1/6
- No. died (numerator) ([2]; 2.04 mg/Kg i.p.): 4/6
- No. died (numerator) ([2]; 2.72 mg/Kg i.p.): 6/6
- LD50 ([2]; i.p.): 1.81 mg/kg
- No. died (numerator) ([3]; 1.00 mg/Kg i.p.): 0/6
- No. died (numerator) ([3]; 1.50 mg/Kg i.p.): 2/6
- No. died (numerator) ([3]; 2.00 mg/Kg i.p.): 6/6
- No. died (numerator) ([3]; 3.00 mg/Kg i.p.): 6/6
- LD50 ([3]; i.p.): 1.58 mg/kg
- LD50 ([4]; mouse, i.p., overall from Table 3): about 1.5 mg/Kg
- long term toxicity ([4]; surviving mice after recovery similar to control): low
